Measured values taken from the supplement of paper PMC7125110.
± gives the standard error. Variants at the floor of the assay were thinned out.

B1: glmS ribozyme (parent)
chain: AUAAAAGCGCCAGAACUACAGAAAUGUAGUUGACGAGGAGGAGGUUUAUCGAAUUUUCGGCGGAUGCCUCCAAA

What was measured:
Details in all cases: with glucosamine-6-phosphate
glucosamine-6-phosphate [1] = variants of: B1; experiment: self-cleavage kobs at 640 uM GlcN6P; higher = faster cleavage; RNA array
Outline: (§1)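 Glucosamine-6-phosphate in HEPES/KCl/Mg(OAc)2 buffer, at 40 μM to 10 mM, was flowed over barcoded ribozyme variants transcribed in situ by E. coli RNA polymerase on sequenced MiSeq chips. Tracking was through a hybridised Cy3 probe at 37 °C. kobs, kcat and KM came from exponential decay fits and weighted Michaelis–Menten fits of normalised per-tile medians.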

glucosamine-6-phosphate [2] = variants of: B1; experiment: self-cleavage kobs at 2500 uM GlcN6P; higher = faster cleavage; RNA array
Outline: as §1

glucosamine-6-phosphate [3] = variants of: B1; experiment: self-cleavage kobs at 10000 uM GlcN6P; higher = faster cleavage; RNA array
Outline: as §1

| Variant | self-cleavage kobs at 640 uM GlcN6P (glucosamine-6-phosphate [1]) | self-cleavage kobs at 2500 uM GlcN6P (glucosamine-6-phosphate [2]) | self-cleavage kobs at 10000 uM GlcN6P (glucosamine-6-phosphate [3]) |
| --- | --- | --- | --- |
| AUAAAAGCGCCAGAUCUACAGAAAUGUAGUUGACGAGGAGGAGGUUUACCGAAUUUUCGGCGGAUGCGUCCAAA [A15U U49C C68G] | 0.00159 ± 0.00057 s⁻¹ |  |  |
| AUAAAAGCGCCAGAUCUACAGAAAUGUAGUUGACGCGGAGGAGUUUUAUCGAAUUUUGCGUGUAUGCCACCAAA [A15U A36C G44U C58G G59C C61U G63U U69A] | < 1e-05 s⁻¹ |  |  |
| AUAAAAGCGCCAGAUCUACAGAAAUGUAGUUGACGAGGAGGAGGUUUAGCGAAUUUUCGGCGGCUGCCUCCAAA [A15U U49G A64C] | < 1e-05 s⁻¹ |  |  |
| AUAAAAGCGCCAGAACUACAGAAAUGUAGUUGACGAGGAUGAGGCUUAUCGAAUUUUCGGCGGAUGGCUCCAAA [G40U U45C C67G] | 4.79e-05 ± 1.9e-05 s⁻¹ | 7.13e-05 ± 1.7e-05 s⁻¹ |  |
| AUAAAAGCGCCAGAACUACAGAAAUGUAGUUGAGGAGGAGGAGGUUUAUCGAAUUUUUGGCGGAUGCGUCCAAA [C34G C58U C68G] | 9.4e-05 ± 2.9e-05 s⁻¹ |  |  |
| AUAAAAGCGCGAGAACUACAGAAAUGUAGUUGACGAGGAGGAGGUUUAUCGAAUUUUCGGCGGAUGCCUACAAA [C11G C70A] | 3.62e-05 ± 1.5e-05 s⁻¹ |  |  |
| AUAAAAGCGCCAGAACUACAGAAAUGUAGUUGACGAGGAGGAGGUUUAUCGAAUUUUCGGCGGAUGCCGCAAAA [U69G C71A] | 6.61e-05 ± 2.3e-05 s⁻¹ |  |  |
| AUAAAAGCGCCAGAACUACAGAAAUGUAGAUGACGAGGCGGAGGUUCAUCGAAUUUUCGGCGGAUGCCUCCAAA [U30A A39C U47C] | 4.7e-05 ± 1.3e-05 s⁻¹ |  |  |
| AUAAAAGCGCCAGUACUACAGAAAUGUAGUUGAUAAGGAGGAGGUUUAUCGAAUUUUCGGCGGAUGCCUCUAAA [A14U C34U G35A C71U] | < 1e-05 s⁻¹ |  |  |
| AUAAAAGCGCCAGAACUACAGAAAUGUAGUCGAAGAGGAGGAGGUUUAUCGAAUUUUCUGCGGAUGCCUCCAAA [U31C C34A G59U] | < 1e-05 s⁻¹ | < 1e-05 s⁻¹ |  |
| AUAAAAGCGCCAGAUCUACAGAAAUGUAGUACACGAGGAGGAGGUUUAUCGAAUUUUCGGCGGAUGCCUCCAAA [A15U U31A G32C] | 4.96e-05 ± 2e-05 s⁻¹ | 6.02e-05 ± 2.5e-05 s⁻¹ |  |
| AUAAAAGCGCCAGAACUACAGAAAUGUAGUUGACGAGGUGGAGGUUUAUCGGAGUUCCGGCGGAUGCCUCCAAA [A39U A52G U54G U57C] | 3.84e-05 ± 1.7e-05 s⁻¹ | 0.00016 ± 4.9e-05 s⁻¹ |  |
| AUAAAAGCGCCAGAACUACAGAAAUGUAGUUGACGUGGAUGGGGUUUAUCGAAUUUUCGGCGGAUGCCUCCAAA [A36U G40U A42G] | < 1e-05 s⁻¹ |  |  |
| AUAAAAGCGACAAAACUACAGAAAUGUAGUUGACGAGGAGGAGGUUUAUAGAAUUUUUGGCGGAUGCCUCGAAA [C10A G13A C50A C58U C71G] | 0.000823 ± 0.00036 s⁻¹ | 7.64e-05 ± 3.6e-05 s⁻¹ |  |
| AUAAAAUCGCCAGAACUACAGAAAUGUAGUUGAUGAGGCGGAGGUUUAUCGAAUUUUCGGCGGAUGCCCCCAAA [G7U C34U A39C U69C] | < 1e-05 s⁻¹ |  |  |
| AUAAAAGCGCCAGAACUACAGAAAUGUAGUUGACGAGGAGGAGGUUUAUCGAAUAUUUGGAGGAUGACUCCAAA [U55A C58U C61A C67A] | 8.67e-05 ± 2.1e-05 s⁻¹ |  |  |
| AUAAAAGCGCCAAAACUACAGAAAUGUAGUUGACGAGGAGAAGGUUUAUUUAAUUUUCGGCGGAUGUCUCCAAA [G13A G41A C50U G51U C67U] | < 1e-05 s⁻¹ |  |  |
| AUAAAAGGGCAAGAACUACAGAAAUGUAGUUGACGAGGCGGAGGUUUAUCGAAUUUUCGGCGGAUGCCUCCAAA [C8G C11A A39C] | < 1e-05 s⁻¹ |  |  |
| AAAAAAGCGCCAGAACUACAGAAAUGUAGUUGACGAGGAGGAGUUUUAUCGAAUUUUCGGCGGAUGCCUCCAAA [U2A G44U] | 0.000101 ± 1.5e-05 s⁻¹ | 0.000228 ± 6.3e-05 s⁻¹ |  |
| AUAAAAGCGCCAGAACUACAGAAAUGUAGUUGACGAGGAGCCGGUUUAUGGAAUUUUCGGCGGAUGCCUCCAAA [G41C A42C C50G] | < 1e-05 s⁻¹ |  |  |
| AUAAAAGCGCGAGAACUACAGAAAUGUAGUUGACGAGGAGGAGGUUUAUCGACUUUUCUGCGGAUGCCACCAAA [C11G A53C G59U U69A] | < 1e-05 s⁻¹ |  |  |
| AUAAAAGGGCCAGAACUACAGAAAUGUAGUUGACUAAGAGGAGGUUUUUCGAAUUUUCGGCGGAUGUCUCCAAA [C8G G35U G37A A48U C67U] | < 1e-05 s⁻¹ | < 1e-05 s⁻¹ |  |
| AUAAAAGCGCUAGAACUACAGAAAUGUAGUAGACGAGGAGGAGGUUUAUCGAUUUUUCGGCGGAUGCCUGCAAA [C11U U31A A53U C70G] | 0.000209 ± 6.9e-05 s⁻¹ | 0.000251 ± 8.4e-05 s⁻¹ |  |
| AUAAAAGCGCCAGAACUACAGAAAUGUAGUUGACGAGGAGGAGGUUUGUCGAACUUUCGGCGGAUGUCUCCAAA [A48G U54C C67U] | < 1e-05 s⁻¹ |  |  |
| AUAAAAGCGCCAGAGCUACAGAAAUGUAGAUGACGAGGUGGAGGUUUAUCGAAUUUUCGGCGGAUGCCUCCAAA [A15G U30A A39U] | 0.00404 ± 0.0016 s⁻¹ | 0.00871 ± 0.0024 s⁻¹ | 0.0247 ± 0.0076 s⁻¹ |

| Variant | self-cleavage kobs at 640 uM GlcN6P (glucosamine-6-phosphate [1]) | self-cleavage kobs at 2500 uM GlcN6P (glucosamine-6-phosphate [2]) | self-cleavage kobs at 10000 uM GlcN6P (glucosamine-6-phosphate [3]) |
| --- | --- | --- | --- |
| AUAAAAGGGCCAUAACUACAGAAAUGUAGUUGUCGAGAAGGAGGUUUAUCGAAUUUUCGGCGGAUGCCUCCAAA [C8G G13U A33U G38A] | < 1e-05 s⁻¹ |  |  |
| AUAAAAGCGCCAGAACUACAGAAAUGUAGUUGACGAGGAGAAGGCUUAUCGAAUUUUCGGCGGAUGCCUACAAA [G41A U45C C70A] | 5.47e-05 ± 1.8e-05 s⁻¹ |  |  |
| AUAAAAGCGCAAGAACUACAGAAAUGUAGUUGACGUGGAGGAGGUUUAUCGAAUUUUCGGCGGAUGCCUGCAAA [C11A A36U C70G] | 0.000284 ± 7e-05 s⁻¹ | 0.000767 ± 0.00032 s⁻¹ |  |
| AUAAAAGCGCCAGACCUACAGAAAUGUAGUUGACGAGGAGCAGGUUUGUCGAAUUUUCGGCGGAUGCCUCCAAA [A15C G41C A48G] | < 1e-05 s⁻¹ |  |  |
| AUAAAAGCGCCAGAACUACAGAAAUGUAGUUGACGCGGAGGAUGGCUAUCGAAUUUUCGGCGGAGGCCUCCAAA [A36C G43U U45G U46C U65G] | < 1e-05 s⁻¹ | < 1e-05 s⁻¹ |  |
| AUAAAAGCUCCAGAACUACAGAAAUGUAGUUGACGUGGAUGAGGUUUAUCGAAUUUUCGACGGAUGCCUCCAAA [G9U A36U G40U G60A] | < 1e-05 s⁻¹ |  |  |
| AUAAAAGCGCCGGAACUACAGAAAUGUAGUUGACGAGGAUCAGGUUUAUCGAAUUUUCGGCGGAUGCCUCCAAA [A12G G40U G41C] | < 1e-05 s⁻¹ |  |  |
| AUAAAAGCGCCAGAACUACAGAAAUGUAGAUGACGAGGAGGAGGUUUAUAGAAUUUUCGGCGGAUGACUGCAAA [U30A C50A C67A C70G] | 4.38e-05 ± 1.7e-05 s⁻¹ |  |  |
| AUAAAAGCGCCAUAACUACAGAAAUGUAGUUAACGAGGAGGAGGUAUAUCGAAUUUUCGGCGGAUGCCUCCAAA [G13U G32A U46A] | 4.17e-05 ± 1.9e-05 s⁻¹ | 8.03e-05 ± 2.3e-05 s⁻¹ |  |
| AUAAAAGCGUCAGAACUACAGAAAUGUAGUUGACGAGGAGGAGGUAUAUCGAAUUCUCGGCGGAUGCCUCCAAA [C10U U46A U56C] | < 1e-05 s⁻¹ | < 1e-05 s⁻¹ |  |
| AUAAAAGCGCCAGUACUACAGAAAUGUAGUUGACGAGGAGGCGGUUUAUCUAAUUUUCGGCGGAUGCCUCCAAA [A14U A42C G51U] | < 1e-05 s⁻¹ |  |  |
| AUAAAAGCGCCAGAAUUACAGAAAUGUAGUUGACGAGGAGGAGGUUUAUCGAAUUUUUGGCGUAUGCCUCCAAA [C16U C58U G63U] | < 1e-05 s⁻¹ |  | < 1e-05 s⁻¹ |
| AUAAAAGCGCCAGAAAUACAGAAAUGUAGUUGACGAGGAUGAGGUUUAUCGAAUUUGCGGCGGAUGCCUCCAAA [C16A G40U U57G] | < 1e-05 s⁻¹ | < 1e-05 s⁻¹ |  |
| AUAAAAGCGCCAGAACUACAGAAAUGUAGUUGUCGAGGAGGAGGUUUAUCGGAUUUUCGGCGGAUGCGUCGAAA [A33U A52G C68G C71G] | 0.000207 ± 7.3e-05 s⁻¹ | 9.93e-05 ± 4e-05 s⁻¹ |  |
| AUAAAAGCGCCAGCACUACAGAAAUGUAGUUGACGAGGAGGUGGUUUAUCGAAUUUUCGGCGAAUGCCUCCAAA [A14C A42U G63A] | < 1e-05 s⁻¹ |  |  |
| AUAAAAGCGCCAGGACUACAGAAAUGUAGUUGACGUGGAGAAGGUUUAUCGAAUUUUCGGCGGAUGCCUCCAAA [A14G A36U G41A] | < 1e-05 s⁻¹ | < 1e-05 s⁻¹ | < 1e-05 s⁻¹ |
| AUAAAAGCGCCAGAACUACAGAAAUGUAAUUGACGAGGAGGAGGUAUAUCGAAUUUUCGGCGGAUGCCUCCAAA [G29A U46A] | 0.000116 ± 2.5e-05 s⁻¹ | 0.000221 ± 4.8e-05 s⁻¹ | 0.000241 ± 3.6e-05 s⁻¹ |
| AUAAAAGCGCCAGAACUACAGAAAUGUAGGUAACGAGCAGGAGGUUUAUCGAAUUUCCGGCGGACGCCUCCAAA [U30G G32A G38C U57C U65C] | < 1e-05 s⁻¹ | < 1e-05 s⁻¹ |  |
| AUAAAAGCGCCCGAACUACAGAAAUGUAGUUGACGAGGAGGAGGUUUAUCGAAUUUUCGGCGGCUCCCUCCAAA [A12C A64C G66C] | < 1e-05 s⁻¹ |  | < 1e-05 s⁻¹ |
| AUAAAAGCGCCUGAACUACAGAAAUGUAGUUGACGAGGAGGAGGUUUCUCUAAUUUUCGGCGGAUGCCUCUAAA [A12U A48C G51U C71U] | < 1e-05 s⁻¹ |  |  |
| AUAAAAGCGCCAGAACUACAGAAAUGUAGUUGGCGAGGAGGAGGUUUCUCGAAUUUUCGGAGGAUGGCUCCAAA [A33G A48C C61A C67G] | < 1e-05 s⁻¹ |  | < 1e-05 s⁻¹ |
| AUAAAAGCGACAGAACUACAGAAAUGUAGUUGACGAGGAGGAGGUUUACCGAAUUUUCGGCGGAUGCCUCCAAA [C10A U49C] | < 1e-05 s⁻¹ |  |  |
| AUAAAAGCGCCAGAACUACAGAAAUGUAGUUGAUGAGGAUGAGGUUUAUCGAUUUUUUGUAGGAUGCAUCCAAA [C34U G40U A53U C58U G60U C61A C68A] | < 1e-05 s⁻¹ |  |  |
| AUAAAAGGGCCAGAACUACAGAAAUGUAGUUCACGAGCAGGAGGUUUAUCGAAGUUUCGGCGGAUGCCUCCAAA [C8G G32C G38C U54G] | < 1e-05 s⁻¹ | < 1e-05 s⁻¹ | < 1e-05 s⁻¹ |
